# B1: CusF (natural protein, E. coli, UniProt P77214 22-110, looked up)
# chain: ANEHHHETMSEAQPQVISATGVVKGIDLESKKITIHHDPIAAVNWPEMTMRFTITPQTKMSEIKTGDKVAFNFVQQGNLSLLQDIKVSQ
# Molecular target: T1, CusB (E. coli, UniProt P77239 29-407)
# T1 sequence (looked up): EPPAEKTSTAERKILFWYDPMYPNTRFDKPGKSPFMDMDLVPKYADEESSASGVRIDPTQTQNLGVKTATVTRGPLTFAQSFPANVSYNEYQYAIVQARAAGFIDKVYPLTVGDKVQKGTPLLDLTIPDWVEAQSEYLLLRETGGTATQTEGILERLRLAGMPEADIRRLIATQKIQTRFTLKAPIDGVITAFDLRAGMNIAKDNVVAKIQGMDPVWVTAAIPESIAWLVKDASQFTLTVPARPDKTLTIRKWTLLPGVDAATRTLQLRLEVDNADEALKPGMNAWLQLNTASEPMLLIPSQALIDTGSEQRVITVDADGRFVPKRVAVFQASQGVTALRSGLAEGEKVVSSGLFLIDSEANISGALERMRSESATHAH
# Experiment: NMR 15N relaxation
binder,measurement,value
B1,Kd,~160 µM

# — article PMC3072847 (Biochemistry, 2011)
